Consider two substances from patent US20250025541A1.

This experiment deals with IL-4Ra of CTLL-2 cells (UniProt P16382). Kind of experiment: cell-based or functional assay.

The substance “muIL-4 immunogenic product (CRM197) (from UniProt P07750 21-140; P00587 26-560)” registered an ED50 [ng · mL^-1], residual activity, CTLL-2 proliferation of 0.62 µg/mL and an Inactivation factor (ED50 of the product divided by ED50 of the muIL-4 control), CTLL-2 proliferation of 370.

In turn, muIL-4 immunogenic product (KLH) yielded an ED50 [ng · mL^-1], residual activity, CTLL-2 proliferation of 0.0215 µg/mL and an Inactivation factor (ED50 of the product divided by ED50 of the muIL-4 control), CTLL-2 proliferation of 21.
